Results on 103 substances are retold here after the supplement of paper PMC12042874.

± gives the uncertainty stated by the source.

This data set in a line: amyloid nucleation score (Sup35N fusion, yeast selection) (log enrichment); library NNK2; higher = more nucleation; inactive = no reads after selection. The method in brief:
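The nucleation score is the log enrichment of output over input reads, calculated with DiMSum and centred on the mode score of non-aggregating sequences. Sequences with under 100 input reads were excluded. Reads came from Illumina sequencing of plasmid inserts from psi-negative yeast expressing Sup35N fused to peptides of 20 random codons, induced 24 hours with 100 μM copper sulfate and grown 7 days at 30°C without adenine and uracil.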
KMSVLG yielded an amyloid nucleation score of -0.936 ± 0.64. GSEECTLTDCRGSRQDILKR showed an amyloid nucleation score of 0.078 ± 0.77. For the substance TKICMASHATVFALYVYCSL, the amyloid nucleation score entry was “inactive”. The substance RIKYG gave an amyloid nucleation score of 4.05 ± 0.065. MVQPS registered an amyloid nucleation score of 0.462 ± 0.5. As for CCKMGRRDLRFLSDFVLCKL, the entry is “inactive”; as for SPLVLGFSRK, -1.02 ± 0.76; as for LAGFGMNFSFRFSVLTWGSV, 3.13 ± 0.09. Turning to LLVKF, the amyloid nucleation score was determined as 0.641 ± 0.74. FCVIAQYAQVPMSCWGWLES yielded an amyloid nucleation score of -0.191 ± 1.1. The substance RFRHNKWYCLLRLAG came in with an amyloid nucleation score of 0.956 ± 0.33. For the substance VRFKYIYHTGLDDVAVNQY, the amyloid nucleation score is -0.487 ± 0.55. NDNKRYIHYPFLMGFTVSYL came in with an amyloid nucleation score of -0.401 ± 0.6.

Turning to VCSMEGYEAVYSRRRELLWS, the amyloid nucleation score turned out to be 0.08 ± 0.36.

As for TGPIWLCYACAWTNTYTPAE, the amyloid nucleation score was determined as 9.357 ± 0.055.

RSLSSPSRKLKLTNLWI: the amyloid nucleation score was -0.226 ± 1.1. Regarding SYCHCASGPFSLNPYSLLVC, the amyloid nucleation score amounted to 0.716 ± 0.66.

With WWWPSVWTCRM, the amyloid nucleation score was -0.716 ± 0.78.

Turning to YSIIFWCFKWYLIQGWLECA, the amyloid nucleation score entry was “inactive”. In turn, IVGHM came in with an amyloid nucleation score of -0.5 ± 0.21. In turn, CFSCFIASGDT displayed an amyloid nucleation score of 7.439 ± 0.026. As to VTRSVSPHSSPYAFYYFNIS, the amyloid nucleation score result was “inactive”. Regarding QSCWIFSGHSE, the amyloid nucleation score was -1.03 ± 0.44. With QRCRFPYDTGSSTHSWTEVG, the amyloid nucleation score is 0.614 ± 0.35. As to KMYYGSKNTKSDLARTYGTL, the amyloid nucleation score came out at 1.61 ± 0.44.

Substance VYMSQWSKVFALFALNFKVN registered an amyloid nucleation score of 1.84 ± 0.2. Substance SVVFLRLGYGKLRV gave an amyloid nucleation score of -0.159 ± 1. ALCWVGSYSACLRIFKPSRM gave an amyloid nucleation score of 0.521 ± 0.41.

On to CWDEQLQPS, for which the amyloid nucleation score is 0.744 ± 0.45. Turning to RPLASSWAQY, the amyloid nucleation score is 1.65 ± 0.21. The substance LAGLYGNFCISRCSVANQMV showed an amyloid nucleation score of 2.08 ± 0.095. With NQSESFHGLDHFTRNHGGCR, the amyloid nucleation score entry is “inactive”.

SNSRKMCDMGKDDNGYKGTH: the amyloid nucleation score is -0.483 ± 1. In the case of QVLCIVLDTSMIGTKACLGV, the amyloid nucleation score stood at 0.325 ± 0.57. As for VIMGFFGITFGWCKRSEVHE, the figure is 2.49 ± 0.11.

As to YFQKGFDVARIHLSFTLVLY, the amyloid nucleation score is -0.913 ± 1.

Consider LHCYFFRLMCQSYDRDYKC, for which the amyloid nucleation score was -0.249 ± 1. The substance CPIYDRTQGLIGLWCLCNEC yielded an amyloid nucleation score of -0.668 ± 0.34. As for PSSYGWCMLFLVWDIQSTL, the amyloid nucleation score was -0.829 ± 1. IGKSCRLRA showed an amyloid nucleation score of 0.609 ± 0.46. For MARTISAGSVLFNLGSRIWH the value was “inactive”.

For the substance DALGSYWMTAMTF, the amyloid nucleation score was 0.371 ± 0.44. As for RFWSMETEHDIIALVFASSV, the figure is 0.096 ± 0.49; as for LYQFSFFGYSYL, 2.39 ± 0.069; as for LIGCPLVDFTLYLCS, “inactive”. As to THSRRLRLNAKMCLHFLWYR, the amyloid nucleation score is -0.115 ± 0.2.

Turning to WNSIYGLAEMQVCWWFGWGC, the amyloid nucleation score was -0.628 ± 0.41. As for YGFASFSLYDYYLLVCSMFI, the entry is “inactive”; as for SVDRNNTYLYRLKYAFWAMG, 6.644 ± 0.043; as for RYHDLGI, -0.093 ± 0.2. In turn, ISVPYGVKGSSACMNGLGVT returned an amyloid nucleation score of 0.318 ± 0.8. As for SYVCRYITVPGFDTN, the figure is 4.76 ± 0.08; as for ATFFILRTYGVWVTSIKRRS, 0.157 ± 1; as for DSSYG, 0.285 ± 0.74. For LITTSMYLWSVHSFVLHMDD the value was 0.545 ± 0.4; for CNSIDMTHKVTLKMSFIFIE, 6.703 ± 0.061.

WCCLYDYFVDTGVLFIQDGS: the amyloid nucleation score was -0.186 ± 0.2. Consider RIVFHYVCTVLR, for which the amyloid nucleation score was -0.964 ± 0.76. With DVQHFIWCCNATVTYPLLVL, the amyloid nucleation score turned out to be 1.27 ± 0.22.

The substance VAFNGYLY gave an amyloid nucleation score of -0.89 ± 0.48. With CDYEYGCQNKRGFRMLLKSW, the amyloid nucleation score entry is “inactive”. Regarding AQAMLSNTILIYEYRDLFIV, the amyloid nucleation score is -0.962 ± 0.78. As for ENLSQQMFWFKYAKVWGNVH, the figure is -0.724 ± 0.39; as for PSYMACSA, -0.187 ± 0.56; as for SYFEMAYEWYCMNWMGEVIK, 9.197 ± 0.054.

Turning to KSINSFYKRIDVVWGMRSQS, the amyloid nucleation score was -0.984 ± 0.33.

LSLLSFGISASFVV yielded an amyloid nucleation score of -1.18 ± 0.41. Take LLSKFF: the amyloid nucleation score result was “inactive”. Substance RKVSSARNSVIATSMSNNSV registered an amyloid nucleation score of -1.61 ± 0.54.

Substance DWVFMRKCSPCWWYYIHLMS returned an amyloid nucleation score of -0.468 ± 0.64. For VVAMDRCLQPVFLHLLSNNF the value was “inactive”.

Turning to PKVVPMISRIAVPL, the amyloid nucleation score is -0.788 ± 0.76. TGELSAQHKASTYYCYCWLF yielded an amyloid nucleation score of 4.43 ± 0.076.

Regarding FLWHCYNFLKAGS, the amyloid nucleation score result was “inactive”. LSIQLTEHA gave an amyloid nucleation score of 2.13 ± 0.079.

Consider AHLAKSKVGLFCHNVMFEVP, for which the amyloid nucleation score is -0.381 ± 1.1.

Substance CCWAVWDLRGFTRGWRLRRG came in with an amyloid nucleation score of 0.509 ± 0.16. As for SEMGTVRRYCLRAYRVCVAY, the amyloid nucleation score amounted to 0.757 ± 0.57. For GVPIGKKYRTSVCENMEGSW, the amyloid nucleation score was -0.627 ± 0.31. With VYYAGSK, the amyloid nucleation score was -0.562 ± 1.1.

For SSRCFSVYSDIMYGTFLS, the amyloid nucleation score entry is “inactive”. Consider HLSCDWVLIDEGLACYM, for which the amyloid nucleation score is -0.586 ± 0.54. With GGSRTRSCQDRAHEGGK, the amyloid nucleation score stood at 0.949 ± 0.74.

Consider HEECIGSCCYGRWSCGTTLW, for which the amyloid nucleation score turned out to be 4.84 ± 0.054.

Substance FFCLIVLVANVTCCGRDEGP came in with an amyloid nucleation score of 5.32 ± 0.055. As for NTLDSGPNGGWLISTY, the entry is “inactive”; as for WSIVGLGSRCWREVASCSTV, 0.636 ± 0.49; as for CYGDAWSWEISMFCCVCRGF, 7.523 ± 0.042.

IWHFYIACLGVSNESISGFG showed an amyloid nucleation score of 6.77 ± 0.068. VLPLFNGIARHPCWNLCMPM returned an amyloid nucleation score of -1.27 ± 0.62. SRNLGGNYGLGGWCNEEFRR: the amyloid nucleation score was 0.185 ± 0.65. As for SILCLLNRLTFREYLMVFID, the figure is -0.583 ± 0.55; as for EFDDYSFICRILSALFES, -0.153 ± 1.1.

The substance HVNWVKKSSWLIGT had an amyloid nucleation score of 0.62 ± 0.74. For FLSVEENGLTDVTVMGWFV the value was 0.19 ± 1.1; for YSVSVRLA, -0.553 ± 0.63; for QIVIWVRLYFNVFSRSRSRV, 1.05 ± 0.36. Substance YMASWVSSAGSFV registered an amyloid nucleation score of 1.05 ± 0.29. The substance LLFQVLPKMTSAPPSGWSTP gave an amyloid nucleation score of 0.547 ± 0.81. As to QAHATFSILRTISAVFSPMQ, the amyloid nucleation score came to 5.973 ± 0.057.

In turn, ILSAFV returned an amyloid nucleation score of -0.16 ± 0.36. As for YWFKSFSWFPVNIVIYNMEK, the figure is 5 ± 0.094.

Substance MYVDLWFGTYRNS showed an amyloid nucleation score of 0.532 ± 0.54.
